PMC7997955 (2021)

Biological target: Full-length human AURKA^T288V (human, UniProt O14965 1-403, T288V)
Assay: FP; competition with FITC-Tpx2 1-43

Full-length human AURKA^T288V, sequence (O14965 other isoform, or with tags, fused parts or gaps T288V | T288V): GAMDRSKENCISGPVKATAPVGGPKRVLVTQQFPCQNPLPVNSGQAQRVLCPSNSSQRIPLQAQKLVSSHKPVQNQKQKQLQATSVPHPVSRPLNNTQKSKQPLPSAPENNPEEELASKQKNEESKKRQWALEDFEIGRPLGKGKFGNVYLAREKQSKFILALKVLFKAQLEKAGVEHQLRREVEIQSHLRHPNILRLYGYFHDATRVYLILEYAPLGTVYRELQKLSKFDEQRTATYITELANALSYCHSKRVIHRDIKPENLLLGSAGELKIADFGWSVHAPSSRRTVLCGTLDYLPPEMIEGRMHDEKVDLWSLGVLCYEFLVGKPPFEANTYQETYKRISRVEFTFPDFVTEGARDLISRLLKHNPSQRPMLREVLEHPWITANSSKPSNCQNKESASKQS

B1: pBora^18–120 (domain or fragment)
chain: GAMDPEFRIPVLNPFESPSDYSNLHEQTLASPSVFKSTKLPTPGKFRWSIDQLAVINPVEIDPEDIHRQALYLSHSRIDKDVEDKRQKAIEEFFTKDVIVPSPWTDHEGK
modifications: phosphorylated (kinase and sites not stated for the fluorescence polarisation assay)
- IC50: 680 nM
